In article doi:10.1101/2020.09.22.308338 (bioRxiv, 2020):

Tests used:
[1] = molecular target: T1, SARS-CoV-2 spike receptor-binding domain (RBD) (SARS-CoV-2, UniProt P0DTC2, biotin (biotinylated RBD in the BLI experiments only)); test: BLI
[2] = molecular target: T1, SARS-CoV-2 spike receptor-binding …; test: bead-based multiplex ACE2 competition assay

B1: nanobody NM1230 (VHH)
VHH: QVQLVESGGGLVRPGGSLRLSCVGSGFTFSGYAMNWYRQAPGKALELVAGISNAGDLTHYEEPMKGRVAISRANDKNTVYLQMDDLKPEDTAVYRCHAPGVRVGTGERKDVWGQGAQVTVSS
- Kd [1]: 8.23 nM
- IC50 [2]: 2.12 nM
